# Laboratory results as given in the DeepSol protein solubility set.
# Assay: soluble on expression in E. coli; label from the status in PepcDB or PDB records
row,Sequence,soluble on expression in E. coli
1,MKGIIFTEFMELVESKFGLEVLDQVLELSDDEGVYTSVGSYDHRDLVKLIVNLSKVSDIPPEQLQEVFGESVFLNLLRSIPSHASLQQCDNTFQFVRHVESFIHVEVKKLYPDANPPKFDFISETQSELVFDYHSARCMAHVCLGLLKGCAAHFGQVIHIMHQNQTEDGSQVRFWLEAQLEHHHHHH,not soluble
2,MSLKGKITLFFTALCFGLTGCIAPPKGLEKERFSINSYREISPQDLTCHCKTVRLGGKIVNTTVLANQTKIEVLSLPVSSISAKPFVELQSDGRFIVYFNGFVEPENLKERYITVGGQLAGTEKGKIEQADYTYPVVQADKYRIWTLSTTYDYPTDDWDEDDDWGFFRWRHRLWYVQPEIHYYLNEGGSHHHHHH,soluble
3,MSLRTEFGRLQEHPIVDFKRGKEVTIYLNGKPVKAYEGETVAAALYAAGVRVFSRSFRWHRPRGFFCAIGKCSACMMEVDGIPNVRTCKVYVRDGMQVRTQSGMPDAEKDVFSILDDVIDKVFPHGSHYTKFTTSKKAREFMVKRMRKFTGFGNPPKAVFQGRAELEEIETDVLVIGGGPGGMSAAINAGKYGAKVLLVDENPFLGGQLVKQTHRFFGSAKERAGTRGIKIAGILEEELNSIENVEVRRETRVFGIYNGEAGAYQRLNDDEGKLLRIKAKKIVVATGAYERTLIFENNDLPGVYGAGGVQTLMNVYGIKPGNMGLIVGSGNVGLILTYQLMQAGVNVAAIVEAMPRIGGYFVHAAKVRRLGVPIYVRHTILKAIGRKSVEGAVIAQLDDRWQPIPGTEKEIKCDFICVAVGLSPTHELLYQAGCEMKFVPELGGIVPLRTRFNETSVKGLYVAGDVAGIEEATAAIMEGRIAGIHAAVTLGYGGEEAKKELDEAVKEIEEFRAGPFGERIVCGLEKCTLESEGHHHHHH,not soluble
4,MSVIRLHQYQVVGRALPTEKDEQPKIYRMKLWATNEVLAKSKFWYYLRRQKKVKKSNGQMLAINEIFEKNPTTIKNFGIWLRYQSRTGYHNMYKEYRDTTLNGAVEQMYTEMASRHRVRFPCIQIIKTATVPASLCKRESTKQFHNSKIKFPLVFRKVRPPTRKLKTTFKANKPNLFM,soluble
5,MAKTYKKIGEETKVIEATEPLTILLMGVDTGNVERTETWVGRSDSMILMTVNPKTKKTTMMSLERDILTRIESGNGQAHEAKLNSAYADGGAELAIETIQKMMNIHIDRYVMVNMRGLQKLVDAVGGITVNNILGFPISISDQEEFNTISIGVGEQHIGGEEALVYARMRYQDPEGDYGRQKRQREVIQKVMEKALSLNSIGHYQEILKALSDNMQTNIDLSAKSIPNLLGYKDSFKTIETQQLQGEGEILQGVSYQIVSRAHMLEMQNILRRSLGQEEVTQLETNAVLFEDLFGRAPVGDEDNLEHHHHHH,soluble
6,MSPANRVVQPYSKEDLAIQVSQLSGSRAAIWKALDSIDSWSYRVFDVQAAMSGDDYLSLSTQTHGGSLLITMYALLCMHDFLQKFKIDEQIALNWISAVEASYHGNPYHNSMHAADVLQITDFIITQGGLAKRCDLSDIQVFSALLAASIHDFDHPGINNNFHIKTGSYLATLYNDRSVLENLHVSSVFELMKNPAFNILASFSDEQHHEVRETMIEMVLATDMGSHGKYVASLKGKMQEHSSFTQTAEQNLCLAIALKMADISNCGRPLDIYLRWGAKVSDEFYQQGDRERNLGLECSPFMDRLQPSLAKSQIAFMNYIITPFFEQVAELLPDMRFAVALVEENKAYWANHDDS,not soluble
7,MLTDPIADMLTRIRNATRVYKESTDVPASRFKEEILRILAREGFIKGYERVDVDGKPYLRVYLKYGPRRQGPDPRPEQVIHHIRRISKPGRRVYVGVKEIPRVRRGLGIAILSTSKGVLTDREARKLGVGGELICEVW,soluble
8,MKIAVTKFLGTNCDLDVCHAVKLAGGEPELVFFTQENLDSYKGAVIPGGFSYGDYLRAGAISARTPIIKGLKKMVEEGKPVLGICNGAQIGLEAGFSKGTLTNNLNAKFICKWVYIRVENNKTPFTQYYKKGEVLKIPIAHAEGRFYADDETLDYMYKNNMIVFKYCDETGEVTEEANPNGSIDNIAGVCNENQNCVLLMPHPERASEKILGSDDGLKMFKGMIDYAKRI,soluble
9,MLTVALLALLCASASGNAIQARSSSYSGEYGSGGGKRFSHSGNQLDGPITALRVRVNTYYIVGLQVRYGKVWSDYVGGRNGDLEEIFLHPGESVIQVSGKYKWYLKKLVFVTDKGRYLSFGKDSGTSFNAVPLHPNTVLRFISGRSGSLIDAIGLHWDVYPTSCSRC,soluble
10,GSHMLITASSSKEYLPDLLLFWQNYEYWITNIGLYKTKQRDLTRTPANLDTDTEECMFWMNYLQKDQSFQLMNFAMENLGALYFGSIGDISELYLRVEQYWDRRADKNHSVDGKYWDALIWSVFTMCIYYMPVEKLAEIFSVYPLHEYLGSNKRLNWEDGMQLVMCQNFARCSLFQLKQCDFMAHPDIRLVQAYLILATTTFPYDEPLLANSLLTQCIHTFKNFHVDDFRPLLNDDPVESIAKVTLGRIFYRLCGCDYLQSGPRKPIALHTEVSSLLQHAAYLQDLPNVDVYREENSTEVLYWKIISLDRDLDQYLNKSSKPPLKTLDAIRRELDIFQYKVDSLEEDFRSNNSRFQKFIALFQISTVSWKLFKMYLIYYDTADSLLKVIHYSKVIISLIVNNFHAKSEFFNRHPMVMQTITRVVSFISFYQIFVESAAVKQLLVDLTELTANLPTIFGSKLDKLVYLTERLSKLKLLWDKVQLLDSGDSFYHPVFKILQNDIKIIELKNDEMFSLIKGLGSLVPLNKLRQESLLEEEDENNTEPSDFRTIVEEFQSEYNISDILS,soluble
11,YIWIEHRTIHQHVDESQSSLHHTEKQIQTFITQHNNSFQELDLTNHHDVTATKRELLKLIHQQPATLYYELSGPNQFITNNYEHLNTKNMYLFSTHQLKFNNSTYMLKIYMANTPRLSEIKKDSRQFALIVDQYDNILYANDDRFTIGEKYRPQQFGFMNESVKLNHADHRLIIYKDIHENIED,not soluble
12,MIEAEEQQPCKTDFYSELPKVELHAHLNGSISSHTMKKLIAQKPDLKIHDQMTVIDKGKKRTLEECFQMFQTIHQLTSSPEDILMVTKDVIKEFADDGVKYLELRSTPRRENATGMTKKTYVESILEGIKQSKQENLDIDVRYLIAVDRRGGPLVAKETVKLAEEFFLSTEGTVLGLDLSGDPTVGQAKDFLEPLLEAKKAGLKLALHLSEIPNQKKETQILLDLLPDRIGHGTFLNSGEGGSLDLVDFVRQHRIPLGKAWSFRSSR,soluble
13,MNDPMGETGFSRESAPEIVFSETDMAAAEQLMHLSEEETVSCSSSTGGDCGGGGGDKIKHEYVSSRIGNELNDGVRGNSILGVEKKRKRTVMKEKKFRSLESIYKGTKEIRD,not soluble
14,MGSDKIHHHHHHMASIDFRNKINWHRRYRSPQGVKTEHEILRIFESDRGRIINSPAIRRLQQKTQVFPLERNAAVRTRLTHSMEVQQVGRYIAKEILSRLKEQDRLEEYGLDALTGPFESIVEMACLMHDIGNPPFGHFGEAAINDWFRQRLHPEDAESQPLTHDRCVVSSLRLQEGEENLNDIRRKVRQDICHFEGNAQGIRLVHTLMRMNLTWAQVGGILKYTRPAWWRGPVPDSHRYLMKKPGYYLSEEKYIARLRKELQLAPYSRFPLTWIMEAADDISYCVADLEDAVEKRIFSVEQLYHHLYHAWCHHEKDSLFELVVGNAWEKSRANTLSRSTEDQFFMYLRVNTLNKLVPYAAQRFIDNLPQIFAGTFNQALLEDASGFSRLLELYKNVAVEHVFSHPDVEQLELQGYRVISGLLDIYQPLLSLSLNDFRELVEKERLKRFPIESRLFQKLSTRHRLAYVEVVSKLPTDSAEYPVLEYYYRCRLIQDYISGMTDLYAWDEYRRLMAVEQ,not soluble
15,SNAMIAKEFETFLLGQEETFLTPAKNLAVLIDTHNADHATLLLSQMTYTRVPVVTDEKQFVGTIGLRDIMAYQMEHDLSQEIMADTDIVHMTKTDVAVVSPDFTITEVLHKLVDESFLPVVDAEGIFQGIITRKSILKAVNALLHDFSKEYEIRCQ,soluble
16,MGSDKIHHHHHHMDAAKDDLEHAKHDLEHGFYNWACFSSQQAAEKAVKAVFQRMGAQAWGYSVPDFLGELSSRFEIPEELMDHALELDKACIPTRYPDALPSGSPRNRYSRIEAERLVNYAEKIIRFCEDLLSRI,soluble
17,MTKPMIQIALDQTNLTDAVAVASNVASYVDVIEVGTILAFAEGMKAVSTLRHNHPNHILVCDMKTTDGGAILSRMAFEAGADWITVSAAAHIATIAACKKVADELNGEIQIEIYGNWTMQDAKAWVDLGITQAIYHRSRDAELAGIGWTTDDLDKMRQLSALGIELSITGGIVPEDIYLFEGIKTKTFIAGRALAGAEGQQTAAALREQIDRFWP,not soluble
